Laboratory results: patent publication EP1473042A1 (City of Hope, dated 2004)

B3: human RXRα (9-cis retinoic acid receptor), full-length, wild type (receptor, UniProt P19793 1-462, looked up)
chain: MDTKHFLPLDFSTQVNSSLTSPTGRGSMAAPSLHPSLGPGIGSPGQLHSPISTLSSPINGMGPPFSVISSPMGPHSMSVPTTPTLGFSTGSPQLSSPMNPVSSSEDIKPPLGLNGVLKVPAHPSGNMASFTKHICAICGDRSSGKHYGVYSCEGCKGFFKRTVRKDLTYTCRDNKDCLIDKRQRNRCQYCRYQKCLAMGMKREAVQEERQRGKDRNENEVESTSSANEDMPVERILEAELAVEPKTETYVEANMGLNPSSPNDPVTNICQAADKQLFTLVEWAKRIPHFSELPLDDQVILLRAGWNELLIASFSHRSIAVKDGILLATGLHVHRNSAHSAGVGAIFDRVLTELVSKMRDMQMDKTELGCLRAIVLFNPDSKGLSNPAEVEALREKVYASLEAYCKHKYPEQPGRFAKLLLRLPALRSIGLKCLEHLFFFKLIGDTPIDTFLMEMLEAPHQMT
notes: mature; also called wild-type RXR

Columns and labels:
[1] = molecular target: T1, rat FXR (farnesoid X-activated receptor), full-length (rat, UniProt Q62735 1-469); test: DNA binding as heterodimer (Figure 5 and data not shown)
T1 construct: mature; in vitro translated for the mobility shift assays; also called bile acid nuclear receptor; BAR
T1 sequence (looked up): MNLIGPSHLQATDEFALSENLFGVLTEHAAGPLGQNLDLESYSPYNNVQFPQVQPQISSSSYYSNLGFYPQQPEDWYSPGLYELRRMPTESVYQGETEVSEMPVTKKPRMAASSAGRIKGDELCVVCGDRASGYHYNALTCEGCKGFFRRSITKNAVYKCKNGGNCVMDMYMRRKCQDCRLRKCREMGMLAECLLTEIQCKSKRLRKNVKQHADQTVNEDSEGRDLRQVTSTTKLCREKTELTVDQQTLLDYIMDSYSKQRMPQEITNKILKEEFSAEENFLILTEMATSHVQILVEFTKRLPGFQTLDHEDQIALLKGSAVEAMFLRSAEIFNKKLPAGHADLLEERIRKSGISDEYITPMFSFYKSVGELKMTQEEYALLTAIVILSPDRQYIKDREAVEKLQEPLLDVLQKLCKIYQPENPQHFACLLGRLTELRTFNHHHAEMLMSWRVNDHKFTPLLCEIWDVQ

[2] = molecular target: GST-GRIP1 (glutathione-S-transferase fused to the three receptor interaction domains of mouse GRIP1, Arg 625 - Lys 765) (mouse) (UniProt Q61026); test: phosphorimager quantitation of the mobility shift autoradiogram (Figure 4)
[3] = molecular target: GST-GRIP1 (glutathione-S-transferase fused to the three receptor interaction domains of mouse GRIP1, Arg 625 - Lys 765) (mouse) (UniProt Q61026); test: electrophoretic mobility shift, DR1 probe, 5 µg GST-GRIP1, LG268 0-1000 nM
[4] = molecular target: B3; test: electrophoretic mobility shift, DR1 probe, increasing LG268
[5] = molecular target: T1, rat FXR (farnesoid X-activated …); test: electrophoretic mobility shift, hsp27 EcRE probe, in vitro translated FXR + RXR

B1: RXRm, human RXRα with the single point mutation Asp 322→Pro in the ligand binding domain (receptor, UniProt P19793 1-462, looked up)
chain: MDTKHFLPLDFSTQVNSSLTSPTGRGSMAAPSLHPSLGPGIGSPGQLHSPISTLSSPINGMGPPFSVISSPMGPHSMSVPTTPTLGFSTGSPQLSSPMNPVSSSEDIKPPLGLNGVLKVPAHPSGNMASFTKHICAICGDRSSGKHYGVYSCEGCKGFFKRTVRKDLTYTCRDNKDCLIDKRQRNRCQYCRYQKCLAMGMKREAVQEERQRGKDRNENEVESTSSANEDMPVERILEAELAVEPKTETYVEANMGLNPSSPNDPVTNICQAADKQLFTLVEWAKRIPHFSELPLDDQVILLRAGWNELLIASFSHRSIAVKPGILLATGLHVHRNSAHSAGVGAIFDRVLTELVSKMRDMQMDKTELGCLRAIVLFNPDSKGLSNPAEVEALREKVYASLEAYCKHKYPEQPGRFAKLLLRLPALRSIGLKCLEHLFFFKLIGDTPIDTFLMEMLEAPHQMT
notes: mature; also called mutant RXR; RXR mutant
binding result [1]: binds | fold higher concentration of ligand (LG268) required for recruitment of coactivator, against wild-type RXR [2]: 100 fold | fold decrease in potency of coactivator recruitment compared to wild type RXR [3]: 100 fold

B2: GST-GRIP1 (glutathione-S-transferase fused to the three receptor interaction domains of mouse GRIP1, Arg 625 - Lys 765) (other, UniProt Q61026 625-765, looked up)
chain: RAEGHSRLHDSKGQTKLLQLLTTKSDQMEPSPLPSSLSDTNKDSTGSLPGPGSTHGTSLKEKHKILHRLLQDSSSPVDLAKLTAEATGKELSQESSSTAPGSEVTVKQEPASPKKKENALLRYLLDKDDTKDIGLPEITPK
notes: range 625-765; Expressed in E. coli, purified on glutathione-sepharose; also called CoA; not shown: glutathione-S-transferase (GST)
binding result [4]: binds

B3
binding result [5]: binds
